Here are results for 39 molecules from US20210246451, “APTAMER FOR ADAMTS5 AND USE FOR APTAMER FOR ADAMTS5” (RIBOMIC INC., published 2021).

The target of one data set is T1, ADAMTS5 (UniProt Q9UNA0 Q9UNA0:262-622).
T1 sequence: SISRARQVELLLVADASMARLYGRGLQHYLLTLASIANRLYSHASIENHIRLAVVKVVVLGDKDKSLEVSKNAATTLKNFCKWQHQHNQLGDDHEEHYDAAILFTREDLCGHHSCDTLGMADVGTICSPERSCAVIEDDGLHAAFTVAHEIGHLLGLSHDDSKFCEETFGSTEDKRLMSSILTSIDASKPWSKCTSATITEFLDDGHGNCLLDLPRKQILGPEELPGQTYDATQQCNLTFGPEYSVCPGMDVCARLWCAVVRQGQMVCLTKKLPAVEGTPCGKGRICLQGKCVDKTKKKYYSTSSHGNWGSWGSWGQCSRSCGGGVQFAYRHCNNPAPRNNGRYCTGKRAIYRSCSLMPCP
As to the kind of experiment: inhibition; 10 nM aptamer, aggrecan G1-IGD-G2 cleavage, method 1. Conditions: tags: R&D Systems. The method, then: (§1) Whether an aptamer having the nucleotide sequence shown in SEQ ID NO: 1 inhibits the enzyme activity of ADAMTS5 was evaluated by the following method. As a substrate of ADAMTS5, the G1-IGD-G2 domain of aggrecan (manufactured by R&D systems) was used. ADAMTS5 specifically cleaves in between the 392nd glutamic acid and the 393rd alanine in the G1-IGD-G2 domain and produces two fragments. These fragments have faster electrophoretic mobility than uncleaved G1-IGD-G2. Thus, the enzyme activity of ADAMTS5 can be measured by quantifying the band intensity of G1-IGD-G2 by SDS-PAGE electrophoresis. The assay was performed in a solution A buffer with a reaction mixture volume of 10 μL. First, a mixture (10 μL) of a nucleic acid and ADAMTS5 was prepared and incubated at 25° C. for 15 min. To a substrate solution (5 μL) diluted with solution A was added a mixture (5 μL) of the nucleic acid and ADAMTS5 to start the enzyme reaction. The final concentration of ADAMTS5 in the reaction solution was 5 nM, and the final substrate concentration was 50 μg/mL. The reaction solution was incubated at 37° C. for 2 hr, 2 μL of solution D was added, and the mixture was heated at 95° C. for 2 min to stop the enzyme reaction of ADAMTS5. Solution D contains 0.25 M tris (pH 6.8), 10% SDS, 50% glycerol, 0.25% bromo phenolblue, and 20% 2-mercaptoethanol. The heat-treated reaction solution was electrophoresed by 7.5% SDS-PAGE and stained with SYPRO Orange (manufactured by Sigma-Aldrich). The staining was performed according to the manual of Sigma-Aldrich and detected using STORM840 manufactured by GE Healthcare. […] The amount of uncleaved substrate in each reaction solution was quantified from the band intensity and the standard curve. The substrate cleavage efficiency of ADAMTS5 under these reaction conditions was 80-100%. The inhibition rate of the test substance was calculated using the following equation.
The aptamers having the sequences shown in SEQ ID NOs: 10(1)-10(8) and 11(1)-11(35), SEQ ID NO: 13-15 were all produced by chemical synthesis.
With AUUGGGGCCUCCACAGCGCUCGCUUGGACUAAACCAAU (ssRNA, 2'-OMe at 1-5,15-26,32-38; 2'-F at 8-12,14,29,30; PS between 11 and 12) [11(22)], the activity came out at 49.8 % inhibition.

For AUUGGGGCCUCCACAGCGCUCGCUUGGACUAAACCAAU (ssRNA, 2'-OMe at 1-5,15-26,32-38; 2'-F at 8-12,14,29,30; PS between 28 and 29) [11(28)], the activity worked out at 44.8 % inhibition.

For AUUGGGGCCUCCACAGCGCUCGCUUGGACUAAACCAAU (ssRNA, 2'-OMe at 1-5,15-26,32-38; 2'-F at 8-12,14,29,30; PS between 29 and 30) [11(29)], the activity is 56.5 % inhibition.

Take AUUGGGGCCUCCACAGCGCUCGCUUGGACUAAACCAAU (ssRNA, 2'-OMe at 1-5,15-26,32-38; 2'-F at 8-12,14,29,30; PS between 13 and 14) [11(24)]: the activity turned out to be 46.3 % inhibition.

For the molecule AUUGGGGCCUCCACAGCGCUCGCUUGGACUAAACCAAU (ssRNA, 2'-OMe at 1-5,15-26,32-38; 2'-F at 8-12,14,29,30; PS between 26 and 27) [11(26)], the activity stood at 47.2 % inhibition.

As for AUUGGGGCCUCCACAGCGCUCGCUUGGACUAAACCAAU (ssRNA, 2'-OMe at 1-5,15-26,32-38; 2'-F at 8-12,14,29,30; PS between 12 and 13) [11(23)], the activity was 47.9 % inhibition.

The molecule AUUGGGGCCUCCACAGCGCUCGCUUGGACUAAACCAAU (ssRNA, 2'-OMe at 1-5,15-26,32-38; 2'-F at 8-12,14,29,30; PS between 27 and 28) [11(27)] came in with an activity of 48.2 % inhibition.

AUUGGGGCCUCCACAGCGCUCGCUUGGACUAAACCAAU (ssRNA, 2'-OMe at 1-5,15-26,32-38; 2'-F at 8-12,14,29,30; PS between 31 and 32) [11(31)] registered an activity of 56.3 % inhibition.

A further data set concerns the target T1, ADAMTS5. As to the kind of experiment: inhibition; method 1. Conditions: tags: R&D Systems. The method, then: as §1
The aptamers having the sequences shown in SEQ ID NOs: 28(l)-28(18) (SEQ ID NO: 28 lineage) and SEQ ID NOs: 29(1)-29(3) (SEQ ID NO: 29 lineage) were all produced by chemical synthesis.
Consider CGUAGGGGCCUCCACAGCGUAAGCUUGGACUUAAACCACG (ssRNA, as SEQ 28 plus 2'-OMe at A4) [28(2)], for which the activity worked out at 68.7 % inhibition.

Regarding CGUAGGGGCCUCCACAGCGUAAGCUUGGACUUAAACCACG (ssRNA, as SEQ 28 plus 2'-F at A14) [28(9)], the activity was 69.7 % inhibition.

The molecule CGUAGGGGCCUCCACAGCGUAAGCUUGGACUUAAACCACG (ssRNA, as SEQ 28 plus 2'-F at G8) [28(8)] gave an activity of 71.1 % inhibition.

With CGUAGGGGCCUCCACAGCGUAAGCUUGGACUUAAACCACG (ssRNA, as SEQ 28 plus 2'-F at A4) [28(6)], the activity worked out at 76.8 % inhibition.

The molecule CGUAGGGGCCUCCACAGCGUAAGCUUGGACUUAAACCACG (ssRNA, as SEQ 28 plus 2'-OMe at 4,20-22,31; 2'-F at G7,G28; 3' idT) [28(14)] gave an activity of 90.6 % inhibition.

Consider CGUAGGGGCCUCCACAGCGUAAGCUUGGACUUAAACCACG (ssRNA, as SEQ 28 plus 2'-F at A33) [28(12)], for which the activity came to 67.8 % inhibition.

Regarding CGUAGGGGCCUCCACAGCGUAAGCUUGGACUUAAACCACG (ssRNA, as SEQ 28 plus 2'-F at A29) [28(11)], the activity turned out to be 42.6 % inhibition.

The molecule CGUAGGGGCCUCCACAGCGUAAGCUUGGACUUAAACCACG (ssRNA, as SEQ 28 plus 2'-F at G28) [28(10)] registered an activity of 76.6 % inhibition.

With CGUAGGGGCCUCCACAGCGUAAGCUUGGACUUAAACCACG (ssRNA, as SEQ 28 plus 2'-F at G7) [28(7)], the activity stood at 84.1 % inhibition.

CGUAGGGGCCUCCACAGCGUAAGCUUGGACUUAAACCACG (ssRNA, as SEQ 28 plus 2'-OMe at 4,20-22,31; 3' idT) [28(13)] registered an activity of 86.1 % inhibition.

Take CGUAGGGGCCUCCACAGCAUUCGCUUGGACACAAACCACG (ssRNA, as SEQ 29 plus 2'-F at G7,G28 and 2'-OMe at A31; 3' idT) [29(2)]: the activity was determined as 89.8 % inhibition.

The molecule CGUAGGGGCCUCCACAGCGUAAGCUUGGACUUAAACCACG (ssRNA, as SEQ 28 plus 2'-OMe at 4,20-22) [28(5)] came in with an activity of 77.3 % inhibition.

Take CGUAGGGGCCUCCACAGCAUUCGCUUGGACACAAACCACG (ssRNA, as SEQ 29 plus 2'-F at G7,G28; 3' idT) [29(3)]: the activity came to 80.9 % inhibition.

A further data set addresses T1, ADAMTS5. As to the kind of experiment: inhibition; 10 nM. The conditions noted are these: tags: R&D Systems. As for the experimental part: as §1
The nucleic acids shown in SEQ ID NOs: 3(1)-3(16) were all produced by chemical synthesis. Whether these nucleic acids inhibit the enzyme activity of ADAMTS5 was determined by a method similar to that in Example 1.
GGAUUGGGGCCUCCACAGCUGCUCAGCUUGGACUAAACCAAUCC (ssRNA, 2'-OMe at 1-7,17-28,36,38-44; 2'-F other pyrimidines) [3(8)]: the activity amounted to 52.8 % inhibition.

Regarding GGAUUGGGGCCUCCACAGCUGCUCAGCUUGGACUAAACCAAUCC (ssRNA, 2'-OMe at 1-7,17-28,35,36,38-44; 2'-F other pyrimidines) [3(15)], the activity was 27.6 % inhibition.

In turn, GGAUUGGGGCCUCCACAGCUGCUCAGCUUGGACUAAACCAAUCC (ssRNA, 2'-OMe at 1-8,17-28,36,38-44; 2'-F other pyrimidines) [3(9)] registered an activity of 25.8 % inhibition.

GGAUUGGGGCCUCCACAGCUGCUCAGCUUGGACUAAACCAAUCC (ssRNA, 2'-OMe at 1-7,17-28,32,36,38-44; 2'-F other pyrimidines) [3(14)] came in with an activity of 1.2 % inhibition.

GGAUUGGGGCCUCCACAGCUGCUCAGCUUGGACUAAACCAAUCC (ssRNA, 2'-OMe at 1-7,15,17-28,36,38-44; 2'-F other pyrimidines) [3(11)]: the activity stood at 48.1 % inhibition.

GGAUUGGGGCCUCCACAGCUGCUCAGCUUGGACUAAACCAAUCC (ssRNA, 2'-OMe at 1-7,9,17-28,36,38-44; 2'-F other pyrimidines) [3(10)]: the activity amounted to 25.6 % inhibition.

Consider GGAUUGGGGCCUCCACAGCUGCUCAGCUUGGACUAAACCAAUCC (ssRNA, 2'-OMe at 1-7,17-28,31,36,38-44; 2'-F other pyrimidines) [3(13)], for which the activity stood at 37 % inhibition.

In turn, GGAUUGGGGCCUCCACAGCUGCUCAGCUUGGACUAAACCAAUCC (ssRNA, 2'-OMe at 1-7,17-28,30,36,38-44; 2'-F other pyrimidines) [3(12)] displayed an activity of 57.5 % inhibition.

GGAUUGGGGCCUCCACAGCUGCUCAGCUUGGACUAAACCAAUCC (ssRNA, 2'-OMe at 1-7,17-28,36-44; 2'-F other pyrimidines) [3(16)] showed an activity of 53.6 % inhibition.

Another data set deals with T1, ADAMTS5. The data set is described as follows: SPR; RU ratio >=40%. The conditions noted are these: tags: R&D Systems. A general note: Surface plasmon resonance follows binding to a sensor surface in real time, without labels.
Turning to GGGUAUUGGGGCCUCCACAGUAAAUUCUUGGACUAAACCAACUCGA (ssRNA, 2'-F pyrimidines) [SEQ ID NO: 37], the binding result was “binds”.

GGGUAUUGGGGCCUCCACAGAAAAGUCUUGGACUAAACCAACUCGA (ssRNA, 2'-F pyrimidines) [SEQ ID NO: 45]: the binding result is “binds”.

GGGUAUUGGGGCCUCCACAGAAAAUUCUUGGACUAAACCAACUCGA (ssRNA, 2'-F pyrimidines) [SEQ ID NO: 43]: the binding result is given as “binds”.

In the case of GGGUAUUGGGGCCUCCACAGAUAAUUCUUGGACUAAACCAACUCGA (ssRNA, 2'-F pyrimidines) [SEQ ID NO: 42], the binding result was “binds”.

As to GGGUAUUGGGGCCUCCACAGAACUUUCUUGGACUAAACCAACUCGA (ssRNA, 2'-F pyrimidines) [SEQ ID NO: 44], the binding result was “binds”.

As to GGGUAUUGGGGCCUCCACGUAACUAAACUGGACUAAACCAACUCGA (ssRNA, 2'-F pyrimidines) [SEQ ID NO: 39], the binding result was “binds”.

For GGGUAUUGGGGCCUCCACGCUAGAAGGCUGGACUAAACCAACUCGA (ssRNA, 2'-F pyrimidines) [SEQ ID NO: 38], the binding result was “binds”.

As to GGGUAUUGGGGCCUCCACGCAAUGGUGCUGGACUAAACCAACUCGA (ssRNA, 2'-F pyrimidines) [SEQ ID NO: 40], the binding result is on record as “binds”.

On to GGGUAUUGGGGCCUCCACAUGGAUACAUUGGACUAAACCAACUCGA (ssRNA, 2'-F pyrimidines) [SEQ ID NO: 41], for which the binding result was “binds”.
